Results from patent US20060269977A1, “Recombinant antibody recognizing dioxin and gene encoding the antibody” (priority 2003, published 2006).

Columns and labels:
Format in all cases: binding
[1] = Hybridoma supernatant EIA: antibody titer to immobilized 2,3,4,7,8-PeCDF derivative-BSA conjugate and its inhibition by 2,3,4,7,8-PeCDF; conditions: titer inhibited by 2,3,4,7,8-PeCDF dissolved in 20% DMSO
Description: After 7 to 10 days from the onset of the cultivation, a portion of the supernatant of the culture in the wells in which proliferation of hybridomas was observed was taken and added to a microtiter plate to which the 2,3,4,7,8-PeCDF derivative-BSA conjugate was immobilized. After allowing to react at room temperature for one hour, the plate was washed with PBS(−) containing 0.05% Tween 20. A peroxidase-labeled anti-mouse IgG antibody (recognizing γ-chain) (KPL Co.) was then added to the plate and allowed to react at room temperature for one hour, and the plate was then washed in the same manner. A substrate solution (TMB substrate, KPL Co.) was added to the plate, the peroxidase activity on the plate was measured, and the antibody titer in the supernatant of the culture was determined.

[2] = Indirect competitive immunoassay using anti-2,3,4,7,8-PeCDF scFv; conditions: 2,3,4,7,8-PeCDF solution in 20% DMSO; immobilized 2,3,4,7,8-PeCDF derivative-BSA conjugate; FIG. 9
Description: Determination of 2,3,4,7,8-PeCDF by an Indirect Competitive Immunoassay Using Anti-2,3,4,7,8-PeCDF scFv
One μg/ml of 2,3,4,7,8-PeCDF derivative-BSA conjugate (50 μl) was added to a microtiter plate, and allowed to react at room temperature for one hour. The wells of the microtiter plate were washed with PBS(−) containing 0.05% Tween 20. A solution of Block Ace (Yukijirushi Co.) was then added to the wells, and the wells were blocked by allowing them to stand at room temperature for two hours. After the microtiter plate was washed, a solution (25 μl) of 2,3,4,7,8-PeCDF prepared in various concentrations (a solution in 20% DMSO) and a solution (25 μl) of anti-2,3,4,7,8-PeCDF scFv were added to the wells, and allowed to react at room temperature for 0.5 to 1 hour. After the microtiter plate was again washed, a solution of anti-tetra-His antibody (Qiagen Co.) 2000-fold diluted was added to the wells, and allowed to react at room temperature for one hour. Subsequently, a solution (50 μl) of peroxidase-labeled anti-mouse IgG (recognizing γ-chain) antibody (KPL Co.) 3000-fold diluted was added to the wells, and allowed to react at room temperature for one hour. […] The reaction was terminated by adding 1 M H3PO4 (50 μl), and OD450 (control: OD600) was measured using a plate reader (Labsystems Co.).

[3] = EIA reactivity of H-chain variable region polypeptide fractions to immobilized 2,3,4,7,8-PeCDF-BSA conjugate; conditions: fractions eluted from nickel-chelate column; EIA on immobilized 2,3,4,7,8-PeCDF-BSA conjugate; FIG. 10
Description: Escherichia coli Origami B (DE3) (Novagen Co.) was transformed using expression vector pET22Δ-Dx3860H which was prepared by removing the sequence between restriction enzyme sites Bam HI and Not I containing the L-chain variable region of expression vector pET22Δ-Dx3860HL. Using the transformant, the expression of the H-chain variable region polypeptide (polypeptide having the amino acid sequence as shown in SEQ ID No. 5) was carried out in the same manner as in the case of the scFv.
The H-chain variable region polypeptide obtained as an inclusion body was reconstituted on a nickel-chelate column as described above, and the product was then isolated and purified using imidazole. Protein concentrations of the fractions eluted from the chelate column were determined by measuring absorbance (280 nm), and the reactivity to an immobilized 2,3,4,7,8-PeCDF-BSA conjugate was also investigated by an EIA method. As a result, it was recognized that the fractions of the H-chain variable region polypeptide have an anti-2,3,4,7,8-PeCDF activity as shown in FIG. 10.

B1: Dx3150: monoclonal antibody recognizing 2,3,4,7,8-PeCDF, produced by hybridoma Dx3150r1; H/L variable regions SEQ ID Nos. 7 and 8 (antibody, V domains shown)
VH: DVQLQESGPGLVKPSQSLSLTCSVTGYSITSGFYWNWIRQFPGNKLEWMGYISYDGYNNYNPFLKNRVSITRDTSENQFFLKLHSVTTEDTATYYCVSYGSRRGVTYWGQGTTLTVSS
VL: QAVVTQESALTTSPGETVTLTCRSSTGAVTTSNYANWVQEKPDHLFTGLIGNTNNRAPGVPARFSGSLIGDKAALTITGAQTEDEAIYFCALWYNTHLVFGGGTRLTVLG
modifications: Polypeptide of H-chain variable region of monoclonal antibody Dx 3150; Polypeptide of L-chain variable region of monoclonal antibody Dx 3150
[1]
  recognition of 2,3,4,7,8-PeCDF by monoclonal antibody: recognizing 2,3,4,7,8-PeCDF

B2: anti-2,3,4,7,8-PeCDF scFv: scFv: H-chain variable region of Dx3860, linker, L-chain variable region of Dx3860 (SEQ ID No. 56), expressed in E. coli Origami B (DE3) (protein)
scFv: EVKLVESGGGLVKPGGSLKLSCAASGFTFSSYAMSWVRQTPEKRLEWVASFSNGGITYYPDSVKGRFTISRDNARNILYLQMTSLRSEDTAIYYCARGYGPAYWGQGTLVTVSSGGGGSGGGGSGGGGSQAVVTQESALTTSPGETVTLTCRSSTGAVTTLNYANWVQEKPDHLFTGLIGNTNNRAPGVPARFSGSLIGDKAALTITGAQTEDEAIYFCALWYSNHLVFGGGTKLTVLG
modifications: scFv fragment Dx3860HL
[2]
  determination of 2,3,4,7,8-PeCDF by indirect competitive immunoassay: can be determined in a highly sensitive manner

B3: H-chain variable region polypeptide: H-chain variable region of Dx3860, polypeptide having the amino acid sequence of SEQ ID No. 5, from vector pET22Δ-Dx3860H (antibody, V domains shown)
VH: EVKLVESGGGLVKPGGSLKLSCAASGFTFSSYAMSWVRQTPEKRLEWVASFSNGGITYYPDSVKGRFTISRDNARNILYLQMTSLRSEDTAIYYCARGYGPAYWGQGTLVTVSA
modifications: Polypeptide of H-chain variable region of monoclonal antibody Dx 3860
[3]
  binding activity to 2,3,4,7,8-PeCDF (anti-2,3,4,7,8-PeCDF activity): has a binding activity to 2,3,4,7,8-PeCDF

B4: Dx3860: monoclonal antibody recognizing 2,3,4,7,8-PeCDF, produced by hybridoma Dx3860r1; H/L variable regions SEQ ID Nos. 5 and 6 (antibody, V domains shown)
VH: EVKLVESGGGLVKPGGSLKLSCAASGFTFSSYAMSWVRQTPEKRLEWVASFSNGGITYYPDSVKGRFTISRDNARNILYLQMTSLRSEDTAIYYCARGYGPAYWGQGTLVTVSA
VL: QAVVTQESALTTSPGETVTLTCRSSTGAVTTLNYANWVQEKPDHLFTGLIGNTNNRAPGVPARFSGSLIGDKAALTITGAQTEDEAIYFCALWYSNHLVFGGGTKLTVLG
modifications: Polypeptide of H-chain variable region of monoclonal antibody Dx 3860; Polypeptide of L-chain variable region of monoclonal antibody Dx 3860
[1]
  recognition of 2,3,4,7,8-PeCDF by monoclonal antibody: recognizing 2,3,4,7,8-PeCDF
